Data published in the supplement of paper PMC10065799, “High-throughput profiling of sequence recognition by tyrosine kinases and SH2 domains using bacterial peptide display” (eLife, 2023).

How the values were obtained:
SHP2-C SH2 = test: SH2 binding enrichment of the phosphorylated peptide, bacterial display (enrichment ratio); higher = better substrate or ligand; peptides without Tyr show the background
Grb2 SH2 = Grb2 SH2 (UniProt P62993); test: as above
c-Src SH2 = test: as above
Fer (mouse) = test: phosphorylation enrichment, bacterial display (enrichment ratio); higher = better substrate or ligand; peptides without Tyr show the background
c-Abl (mouse) = test: as above
Fes = Fes (UniProt P07332); test: as above
Fyn = Fyn (UniProt P06241); test: as above
Hck = Hck (UniProt P08631); test: as above
MERTK = MERTK (UniProt Q12866); test: as above
Jak2 = Jak2 (UniProt O60674); test: as above
c-Src = test: as above
AncSZ = test: as above
FGFR3 = FGFR3 (UniProt P22607); test: as above
EPHB2 = EPHB2 (UniProt P29323); test: as above
FGFR1 = FGFR1 (UniProt P11362); test: as above
EPHB1 = EPHB1 (UniProt P54762); test: as above
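Throughout, for SH2 binding enrichment of the phosphorylated peptide, bacterial display: peptide library displayed on the E. coli surface as eCPX fusions, selected cells deep-sequenced, score is each peptide's frequency after selection divided by its frequency in the input.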
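Throughout, for phosphorylation enrichment, bacterial display: 11-residue human phosphosite peptides and single-mutation variants displayed on the E. coli surface, counted by deep sequencing, each peptide's frequency after selection divided by its frequency in the unselected input library; frequency after pTyr selection over input frequency; kinase dosed for 20-30% of maximal phosphorylation in three min.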

EPHB1, sequence (P54762 whole entry, looked up, the tested form may be a part): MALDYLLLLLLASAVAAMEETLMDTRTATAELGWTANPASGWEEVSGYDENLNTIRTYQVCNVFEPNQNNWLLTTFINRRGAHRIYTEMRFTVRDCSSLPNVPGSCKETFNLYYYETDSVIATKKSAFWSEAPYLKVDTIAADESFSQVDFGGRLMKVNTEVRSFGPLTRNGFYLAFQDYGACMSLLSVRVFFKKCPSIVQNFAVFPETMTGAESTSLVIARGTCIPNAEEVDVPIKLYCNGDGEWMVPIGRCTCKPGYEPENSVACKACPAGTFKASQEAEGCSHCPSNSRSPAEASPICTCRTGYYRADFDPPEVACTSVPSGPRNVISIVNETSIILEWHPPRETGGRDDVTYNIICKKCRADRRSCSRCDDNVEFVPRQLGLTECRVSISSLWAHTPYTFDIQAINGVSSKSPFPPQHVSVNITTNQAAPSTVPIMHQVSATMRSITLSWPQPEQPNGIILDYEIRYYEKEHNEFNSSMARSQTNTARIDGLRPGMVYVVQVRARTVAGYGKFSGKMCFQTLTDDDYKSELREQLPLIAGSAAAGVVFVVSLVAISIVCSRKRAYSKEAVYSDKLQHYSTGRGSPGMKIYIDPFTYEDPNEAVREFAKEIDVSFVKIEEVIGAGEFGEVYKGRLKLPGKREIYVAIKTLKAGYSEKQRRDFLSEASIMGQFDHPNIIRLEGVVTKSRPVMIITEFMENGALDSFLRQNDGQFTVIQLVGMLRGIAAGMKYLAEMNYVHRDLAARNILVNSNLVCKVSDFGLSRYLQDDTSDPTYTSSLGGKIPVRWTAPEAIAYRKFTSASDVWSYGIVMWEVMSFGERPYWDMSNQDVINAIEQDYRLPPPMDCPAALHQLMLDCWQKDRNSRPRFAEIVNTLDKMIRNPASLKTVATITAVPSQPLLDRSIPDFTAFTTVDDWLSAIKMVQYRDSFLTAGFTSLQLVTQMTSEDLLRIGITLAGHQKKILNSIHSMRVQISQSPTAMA
Fyn, sequence (P06241 whole entry, looked up): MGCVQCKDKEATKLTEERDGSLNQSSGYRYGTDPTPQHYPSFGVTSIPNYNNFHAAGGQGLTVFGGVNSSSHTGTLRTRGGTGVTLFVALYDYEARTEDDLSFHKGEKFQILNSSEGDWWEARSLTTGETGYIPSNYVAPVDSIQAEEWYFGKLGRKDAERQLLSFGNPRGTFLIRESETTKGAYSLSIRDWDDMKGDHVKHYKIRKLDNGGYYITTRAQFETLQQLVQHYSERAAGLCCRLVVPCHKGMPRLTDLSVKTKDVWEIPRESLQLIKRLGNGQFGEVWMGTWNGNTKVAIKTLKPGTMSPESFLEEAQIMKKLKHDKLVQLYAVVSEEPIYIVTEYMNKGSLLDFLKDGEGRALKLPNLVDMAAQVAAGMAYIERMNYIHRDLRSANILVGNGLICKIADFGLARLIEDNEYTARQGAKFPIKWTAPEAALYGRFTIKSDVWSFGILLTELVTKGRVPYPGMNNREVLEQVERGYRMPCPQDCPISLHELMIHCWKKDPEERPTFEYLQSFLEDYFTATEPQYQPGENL
FGFR1, sequence (P11362 whole entry, looked up): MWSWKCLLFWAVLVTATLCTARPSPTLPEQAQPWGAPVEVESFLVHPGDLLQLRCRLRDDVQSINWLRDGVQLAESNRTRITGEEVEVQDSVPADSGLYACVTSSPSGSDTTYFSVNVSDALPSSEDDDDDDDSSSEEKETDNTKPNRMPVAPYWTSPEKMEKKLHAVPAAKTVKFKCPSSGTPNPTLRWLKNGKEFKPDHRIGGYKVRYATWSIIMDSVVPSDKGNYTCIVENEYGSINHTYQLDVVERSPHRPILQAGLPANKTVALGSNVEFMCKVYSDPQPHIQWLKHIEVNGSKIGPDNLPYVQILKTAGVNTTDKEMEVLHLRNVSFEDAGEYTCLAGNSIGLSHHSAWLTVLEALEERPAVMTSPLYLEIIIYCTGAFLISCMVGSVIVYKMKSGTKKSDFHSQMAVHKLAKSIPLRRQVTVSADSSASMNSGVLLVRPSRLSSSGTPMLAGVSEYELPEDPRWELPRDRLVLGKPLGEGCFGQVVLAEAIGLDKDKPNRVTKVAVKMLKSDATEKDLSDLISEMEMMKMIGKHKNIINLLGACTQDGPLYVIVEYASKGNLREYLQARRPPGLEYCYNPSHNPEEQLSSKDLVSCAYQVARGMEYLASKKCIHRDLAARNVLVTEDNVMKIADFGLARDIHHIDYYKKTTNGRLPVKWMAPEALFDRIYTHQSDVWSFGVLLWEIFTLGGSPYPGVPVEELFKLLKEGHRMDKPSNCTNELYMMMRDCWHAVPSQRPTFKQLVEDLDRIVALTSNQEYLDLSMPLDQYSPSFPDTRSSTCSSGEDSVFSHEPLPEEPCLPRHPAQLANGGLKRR
Fes, sequence (P07332 whole entry, looked up): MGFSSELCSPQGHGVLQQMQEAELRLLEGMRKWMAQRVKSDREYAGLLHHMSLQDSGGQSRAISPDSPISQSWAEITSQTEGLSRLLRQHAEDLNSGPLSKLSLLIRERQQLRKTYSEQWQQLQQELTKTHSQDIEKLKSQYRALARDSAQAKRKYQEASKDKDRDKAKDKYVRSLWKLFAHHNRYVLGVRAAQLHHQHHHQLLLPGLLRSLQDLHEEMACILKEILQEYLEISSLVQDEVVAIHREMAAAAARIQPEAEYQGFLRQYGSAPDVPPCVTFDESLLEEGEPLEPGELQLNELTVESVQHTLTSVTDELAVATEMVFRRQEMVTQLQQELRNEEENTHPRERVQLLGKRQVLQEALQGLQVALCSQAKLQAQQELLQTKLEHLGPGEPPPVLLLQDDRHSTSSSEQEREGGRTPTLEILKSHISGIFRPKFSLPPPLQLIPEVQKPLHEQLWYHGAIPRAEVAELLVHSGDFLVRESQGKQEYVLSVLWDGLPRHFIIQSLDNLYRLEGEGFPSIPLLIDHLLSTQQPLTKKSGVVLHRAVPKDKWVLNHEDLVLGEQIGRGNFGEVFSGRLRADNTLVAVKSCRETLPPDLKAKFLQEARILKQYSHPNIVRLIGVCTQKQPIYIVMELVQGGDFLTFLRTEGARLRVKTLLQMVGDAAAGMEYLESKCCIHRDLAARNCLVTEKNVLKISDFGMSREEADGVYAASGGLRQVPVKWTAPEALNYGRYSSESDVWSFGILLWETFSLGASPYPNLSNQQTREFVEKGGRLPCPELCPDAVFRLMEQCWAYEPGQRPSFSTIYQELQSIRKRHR
Hck, sequence (P08631 whole entry, looked up): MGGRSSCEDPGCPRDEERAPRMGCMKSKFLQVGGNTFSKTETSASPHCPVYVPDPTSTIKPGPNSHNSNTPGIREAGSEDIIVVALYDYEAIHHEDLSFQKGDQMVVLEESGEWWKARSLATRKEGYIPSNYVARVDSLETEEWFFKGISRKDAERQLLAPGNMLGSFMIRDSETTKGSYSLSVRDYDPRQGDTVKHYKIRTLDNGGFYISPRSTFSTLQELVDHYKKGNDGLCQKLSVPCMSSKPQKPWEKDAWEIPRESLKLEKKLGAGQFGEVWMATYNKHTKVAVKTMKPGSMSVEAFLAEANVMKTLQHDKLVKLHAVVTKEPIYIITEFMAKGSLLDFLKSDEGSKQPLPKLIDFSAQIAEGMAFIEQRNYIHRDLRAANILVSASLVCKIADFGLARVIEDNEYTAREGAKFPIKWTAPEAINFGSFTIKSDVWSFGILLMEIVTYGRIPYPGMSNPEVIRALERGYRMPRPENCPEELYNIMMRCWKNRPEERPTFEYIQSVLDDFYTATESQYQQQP
EPHB2, sequence (P29323 whole entry, looked up): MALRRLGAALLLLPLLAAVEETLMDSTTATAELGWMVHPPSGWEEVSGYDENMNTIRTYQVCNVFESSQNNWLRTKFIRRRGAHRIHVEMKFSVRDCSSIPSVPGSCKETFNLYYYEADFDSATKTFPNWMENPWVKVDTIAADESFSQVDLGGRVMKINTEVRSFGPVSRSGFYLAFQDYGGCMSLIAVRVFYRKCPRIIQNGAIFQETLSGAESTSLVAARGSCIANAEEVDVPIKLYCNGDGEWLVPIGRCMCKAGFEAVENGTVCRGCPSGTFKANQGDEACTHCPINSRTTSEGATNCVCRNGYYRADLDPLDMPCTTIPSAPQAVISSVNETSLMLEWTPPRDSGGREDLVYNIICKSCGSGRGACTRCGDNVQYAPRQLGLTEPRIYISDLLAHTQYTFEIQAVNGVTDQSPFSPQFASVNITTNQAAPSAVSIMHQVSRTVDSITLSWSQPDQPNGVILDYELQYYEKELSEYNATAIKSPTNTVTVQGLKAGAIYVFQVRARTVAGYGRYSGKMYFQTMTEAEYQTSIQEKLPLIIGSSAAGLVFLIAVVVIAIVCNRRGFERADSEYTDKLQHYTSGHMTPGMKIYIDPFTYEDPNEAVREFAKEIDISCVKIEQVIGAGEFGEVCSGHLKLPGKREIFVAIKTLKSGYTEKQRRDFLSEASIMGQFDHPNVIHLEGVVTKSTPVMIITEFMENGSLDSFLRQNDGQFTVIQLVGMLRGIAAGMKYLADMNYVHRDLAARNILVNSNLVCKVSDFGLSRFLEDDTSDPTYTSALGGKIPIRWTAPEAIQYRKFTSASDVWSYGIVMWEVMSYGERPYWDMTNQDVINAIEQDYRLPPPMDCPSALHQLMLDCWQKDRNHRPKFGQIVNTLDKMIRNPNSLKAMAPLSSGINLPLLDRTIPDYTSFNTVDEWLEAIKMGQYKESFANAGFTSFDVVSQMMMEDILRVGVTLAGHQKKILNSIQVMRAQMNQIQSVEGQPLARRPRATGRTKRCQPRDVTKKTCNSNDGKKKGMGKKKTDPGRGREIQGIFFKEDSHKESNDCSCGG

Row | Sequence | SH2 binding enrichment (SHP2-C SH2) | SH2 binding enrichment (Grb2 SH2) | SH2 binding enrichment (c-Src SH2) | phosphorylation enrichment (Fer (mouse)) | phosphorylation enrichment (c-Abl (mouse)) | phosphorylation enrichment (Fes) | phosphorylation enrichment (Fyn) | phosphorylation enrichment (Hck) | phosphorylation enrichment (MERTK) | phosphorylation enrichment (Jak2) | phosphorylation enrichment (c-Src) | phosphorylation enrichment (AncSZ) | phosphorylation enrichment (FGFR3) | phosphorylation enrichment (EPHB2) | phosphorylation enrichment (FGFR1) | phosphorylation enrichment (EPHB1)
1 | RRGTGYTLPLP [MAGEC3_Y152_S155P] | 0.607 | 0.853 | 0.956 | 0.424 | 0.683 | 0.696 | 0.642 | 0.607 | 0.838 | 1.01 | 0.831 | 0.971 | 0.522 | 0.387 | 0.651 | 0.977
2 | TRVMEYISRLD [CLTCL1_Y1043] | 0.931 | 1.03 | 0.655 | 0.353 | 0.565 | 0.694 | 0.381 | 0.511 | 0.325 | 0.637 | 0.358 | 0.762 | 0.44 | 0.449 | 0.344 | 0.35
3 | QLGLQYSQGLV [EIF2B4_Y214_R209Q] | 0.721 | 0.644 | 0.375 | 0.527 | 0.861 | 0.835 | 0.447 | 0.598 | 0.731 | 1.75 | 0.629 | 0.995 | 0.776 | 0.479 | 0.478 | 0.427
4 | RETSLYKACER [ASB2_Y162_P160S] | 0.799 | 1.14 | 0.857 | 0.762 | 0.85 | 0.954 | 0.481 | 0.9 | 0.719 | 1.31 | 0.939 | 1 | 0.558 | 0.609 | 0.548 | 0.59
5 | DSIRDYEDGTE [CLNS1A_Y214_M218T] | 0.67 | 0.829 | 0.577 | 0.766 | 1.02 | 1.58 | 0.602 | 0.57 | 0.959 | 1.35 | 1.1 | 1.55 | 0.988 | 0.565 | 0.511 | 0.784
6 | VHNLNYFKKTT [FGFR3_Y647_D646N_YF] | 0.678 | 0.987 | 0.377 | 0.346 | 0.442 | 0.607 | 0.302 | 0.347 | 0.311 | 0.467 | 0.425 | 0.402 | 0.369 | 0.314 | 0.355 | 0.36
7 | SLAARYFNWVS [FLT4_Y1230_YF] | 1.39 | 2.68 | 1.15 | 0.479 | 0.822 | 1.26 | 0.494 | 0.532 | 0.636 | 0.935 | 0.431 | 1.15 | 0.718 | 0.698 | 0.555 | 0.586
8 | EAIAKYDLKAT [GRB2_Y7_F9L] | 0.741 | 0.874 | 0.478 | 0.443 | 0.617 | 0.713 | 0.408 | 0.458 | 0.412 | 0.851 | 0.438 | 0.809 | 0.634 | 0.464 | 0.466 | 0.489
9 | LKKKQYTSIHH [APP_Y728] | 2.63 | 1.53 | 1.89 | 0.688 | 1.39 | 0.787 | 0.92 | 0.869 | 0.508 | 0.949 | 1.03 | 0.631 | 0.903 | 0.605 | 0.631 | 0.739

More lines, main results first:

Row | SH2 binding enrichment (SHP2-C SH2) | SH2 binding enrichment (Grb2 SH2) | SH2 binding enrichment (c-Src SH2) | Sequence | phosphorylation enrichment (Fer (mouse)) | phosphorylation enrichment (c-Abl (mouse)) | phosphorylation enrichment (Fes) | phosphorylation enrichment (Fyn) | phosphorylation enrichment (Hck) | phosphorylation enrichment (MERTK) | phosphorylation enrichment (Jak2) | phosphorylation enrichment (c-Src) | phosphorylation enrichment (AncSZ) | phosphorylation enrichment (FGFR3) | phosphorylation enrichment (EPHB2) | phosphorylation enrichment (FGFR1) | phosphorylation enrichment (EPHB1)
10 | 0.676 | 1.14 | 0.466 | EPVSDYINANV [PTPN11_Y304_I309V] | 0.384 | 0.567 | 0.855 | 0.393 | 0.428 | 0.4 | 0.754 | 0.37 | 1.03 | 0.585 | 0.486 | 0.541 | 0.42
11 | 0.637 | 1.03 | 0.561 | LPENPYHSRPR [NDUFA8_Y142] | 0.384 | 0.761 | 0.632 | 0.72 | 0.916 | 0.415 | 0.552 | 1.8 | 0.643 | 0.408 | 0.41 | 0.442 | 0.3
12 | 0.635 | 0.967 | 0.548 | AERKLYSGAQT [ZAP70_Y178] | 0.358 | 0.545 | 0.536 | 0.375 | 0.395 | 0.414 | 0.412 | 0.383 | 0.504 | 0.457 | 0.295 | 0.36 | 0.436
13 | 0.465 | 0.672 | 0.594 | QCTSAHPLQPE [NANS_Y188_Y188H] | 0.726 | 1.09 | 1.73 | 0.601 | 0.771 | 0.449 | 1.28 | 0.461 | 1.25 | 0.961 | 0.923 | 0.966 | 1.07
14 | 0.721 | 0.979 | 0.667 | FFRKVYHLASV [RBL1_Y796_YF] | 0.374 | 0.581 | 0.781 | 0.491 | 0.337 | 0.36 | 0.713 | 0.503 | 0.697 | 0.545 | 0.415 | 0.46 | 0.439
15 | 0.643 | 0.93 | 0.506 | LARDMYDKEFF [MET_Y1230_YF] | 0.464 | 0.519 | 0.945 | 0.507 | 0.539 | 0.396 | 0.702 | 0.382 | 0.685 | 0.596 | 0.564 | 0.517 | 0.515
16 | 0.795 | 0.642 | 0.471 | ESMNTYLQTSP [NAT1_Y208] | 0.539 | 0.693 | 0.947 | 0.469 | 0.655 | 0.412 | 0.825 | 0.477 | 1 | 0.664 | 0.511 | 0.584 | 0.584
